Results on 77 sequences are retold here after the supplement of paper PMC7877785.

The series is described as follows: self-splicing fitness, log relative to wild type (ln ratio); higher = more splicing; Tetrahymena group I intron in knt gene, E. coli kanamycin selection, DiMSum; sequences stand for … in CUCUCU…GGAGGGAAAAGUUAUCAGGCAUGCACCUGGUAGCUAGUCUUUAAACCAAUAGAUUGCAUCGGUUUAAAAGGCAAGACCGUCAAAUUGCGGGAAAGGGGUCAACAGCCGUUCAGUACCAAGUCUCAGGGGAAACUUUGAGAUGGCCUUGCAAAGGGUAUGGUAAUAAGCUGACGGACAUGGUCCUAACCACGCAGCCAAGUCCUAAGUCAACAGAUCUUCUGUUGAUAUGGAUGCAGUUCACAGACUAAAUGUCGGUCGGGGAAGAUGUAUUCUUCUCAUAAGAUAUAGUCGGACCUCUCCUUAAUGGGAGCUAGCGGAUGAAGUGAUGCAACACUGGAGCCGCUGGGAACUAAUUUGUAUGCGAAAGUAUAUUGAUUAGUUUUGGAGUACUCGUGGUCG
An outline of the steps: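 Fitness was computed with DiMSum as the error-weighted combination of replicate fold changes, kanamycin versus none, each normalised to wild type. The library randomised all eight intron nucleotides of the P1ex region, with the intron placed in the knt kanamycin-resistance gene on pET-22b(+) in E. coli BL21(DE3). Six replicate transformations were grown overnight at 37°C or 30°C on LB agar with or without 25 μg/mL kanamycin, plus 100 μg/mL carbenicillin, 50 μM IPTG and 0.2% rhamnose. Pooled colonies were amplicon-sequenced on an Illumina HiSeq 2500.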

± gives the uncertainty stated by the source.

As to CUAAAGCAAUAUUACGGCUU, the “self-splicing fitness (ln)” value (30 °C) was -3.8 ± 0.21 and the “self-splicing fitness (ln)” value (37 °C) is -2.44 ± 0.29. CUAAAGCAAUAUUACGGGAG: the “self-splicing fitness (ln)” value runs as follows: (30 °C) -0.542 ± 0.056; (37 °C) 0.188 ± 0.077. The like results for CUAAAGCAAUAUUACGGUUC were, in that order, -4.09 ± 0.2 and -2.68 ± 0.18.

For CUAAAGCAAUAUUACGUAGU, the “self-splicing fitness (ln)” value is, setting by setting: (30 °C) -4.53 ± 0.2; (37 °C) -2.59 ± 0.17. Turning to CUAAAGCAAUAUUACGUGUU, the “self-splicing fitness (ln)” value (30 °C) was -4.79 ± 0.19 and the “self-splicing fitness (ln)” value (37 °C) is -2.91 ± 0.16. Taken in the same sequence, the figures for CUAAAGCAAUAUUACGUUAG were -2.33 ± 0.093 and -1.77 ± 0.1. On to CUAAAGCAAUAUUACGUUAU, for which the “self-splicing fitness (ln)” value (30 °C) was -4.11 ± 0.21 and the “self-splicing fitness (ln)” value (37 °C) was -3.34 ± 0.26. The like results for CUAAAGCAAUAUUACGUUUG were, in that order, -1.47 ± 0.075 and -0.672 ± 0.092. With CUACAGCAAUAUUACGAAAC, the “self-splicing fitness (ln)” value by setting is: (30 °C) -3.35 ± 0.26; (37 °C) -2.37 ± 0.39. The like results for CUACAGCAAUAUUACGAACG were, in that order, 0.241 ± 0.11 and 0.6 ± 0.14. Regarding CUACAGCAAUAUUACGACAU, the “self-splicing fitness (ln)” value (30 °C) was -3.878 ± 0.021 and the “self-splicing fitness (ln)” value (37 °C) is -2.67 ± 0.037.

For CUACAGCAAUAUUACGACCA, the “self-splicing fitness (ln)” value runs as follows: (30 °C) -2.7 ± 0.3; (37 °C) -2.31 ± 0.35.

For the sequence CUACAGCAAUAUUACGAUUC, the “self-splicing fitness (ln)” value by setting is: (30 °C) -4.31 ± 0.43; (37 °C) -1.6 ± 0.24. The like results for CUACAGCAAUAUUACGCCCU were, in that order, -3.11 ± 0.2 and -2.85 ± 0.29. On to CUACAGCAAUAUUACGCCUC, for which the “self-splicing fitness (ln)” value (30 °C) is -3.9 ± 0.3 and the “self-splicing fitness (ln)” value (37 °C) is -0.901 ± 0.34. The like results for CUACAGCAAUAUUACGCGGA were, in that order, -3.06 ± 0.25 and -3 ± 0.27. Taken in the same sequence, the figures for CUACAGCAAUAUUACGCUCU were -4.15 ± 0.25 and -2.74 ± 0.29. The like results for CUACAGCAAUAUUACGGAAG were, in that order, -1.46 ± 0.085 and -0.751 ± 0.11. Turning to CUACAGCAAUAUUACGGAGA, the “self-splicing fitness (ln)” value was -4.39 ± 0.42 (30 °C) and -2.27 ± 0.27 (37 °C).

As to CUACAGCAAUAUUACGGGAC, the “self-splicing fitness (ln)” value by setting is: (30 °C) -2.98 ± 0.14; (37 °C) -2.06 ± 0.15. Taken in the same sequence, the figures for CUACAGCAAUAUUACGGGCA were -2.76 ± 0.18 and -2.21 ± 0.21. Taken in the same sequence, the figures for CUACAGCAAUAUUACGUAAU were -3.8 ± 0.19 and -2.84 ± 0.18.

For the sequence CUACAGCAAUAUUACGUACU, the “self-splicing fitness (ln)” value was -3.15 ± 0.14 (30 °C) and -1.05 ± 0.15 (37 °C). For the sequence CUACAGCAAUAUUACGUGAC, the “self-splicing fitness (ln)” value was -1.02 ± 0.09 (30 °C) and -0.853 ± 0.14 (37 °C). On to CUACAGCAAUAUUACGUGCG, for which the “self-splicing fitness (ln)” value is, setting by setting: (30 °C) -1.75 ± 0.081; (37 °C) -0.715 ± 0.089. The like results for CUAGAGCAAUAUUACGACAA were, in that order, -2.53 ± 0.32 and -1.84 ± 0.34. The like results for CUAGAGCAAUAUUACGAUGC were, in that order, -2.31 ± 0.42 and -1.94 ± 0.43. Taken in the same sequence, the figures for CUAGAGCAAUAUUACGCAAG were -1.8 ± 0.096 and -0.42 ± 0.11. Take CUAGAGCAAUAUUACGCACG: the “self-splicing fitness (ln)” value is, setting by setting: (30 °C) -0.957 ± 0.15; (37 °C) -0.23 ± 0.24. The like results for CUAGAGCAAUAUUACGCAUC were, in that order, -3.92 ± 0.29 and -2.65 ± 0.45. Taken in the same sequence, the figures for CUAGAGCAAUAUUACGCCCG were -0.259 ± 0.2 and 0.187 ± 0.18. The like results for CUAGAGCAAUAUUACGCGAC were, in that order, -0.657 ± 0.13 and 0.181 ± 0.16. Regarding CUAGAGCAAUAUUACGCGUG, the “self-splicing fitness (ln)” value is -0.446 ± 0.1 (30 °C) and -0.476 ± 0.12 (37 °C). The like results for CUAGAGCAAUAUUACGGAGG were, in that order, -1.49 ± 0.13 and -1.98 ± 0.16.

Regarding CUAGAGCAAUAUUACGGUAA, the “self-splicing fitness (ln)” value is -3.52 ± 0.29 (30 °C) and -1.5 ± 0.16 (37 °C). The like results for CUAGAGCAAUAUUACGGUCG were, in that order, 0.342 ± 0.11 and -0.264 ± 0.13. The like results for CUAGAGCAAUAUUACGUACG were, in that order, -0.818 ± 0.082 and 0.268 ± 0.12. The like results for CUAGAGCAAUAUUACGUAGU were, in that order, -2.72 ± 0.22 and -1.94 ± 0.33. CUAGAGCAAUAUUACGUAUA: the “self-splicing fitness (ln)” value (30 °C) is -3.08 ± 0.49.

For the sequence CUAGAGCAAUAUUACGUCGG, the “self-splicing fitness (ln)” value reads like this: (30 °C) -0.971 ± 0.095; (37 °C) -0.975 ± 0.1. Turning to CUAGAGCAAUAUUACGUCUC, the “self-splicing fitness (ln)” value is -3.75 ± 0.2 (30 °C) and -2.76 ± 0.25 (37 °C). Taken in the same sequence, the figures for CUAGAGCAAUAUUACGUGAC were -1.08 ± 0.12 and -1.31 ± 0.17. As to CUAGAGCAAUAUUACGUUCA, the “self-splicing fitness (ln)” value by setting is: (30 °C) -3.21 ± 0.24; (37 °C) -1.36 ± 0.29. The like results for CUAGAGCAAUAUUACGUUGA were, in that order, -4.21 ± 0.34 and -3.11 ± 0.38. The like results for CUAUAGCAAUAUUACGAAUU were, in that order, -2.02 ± 0.39 and -2.26 ± 0.46. The like results for CUAUAGCAAUAUUACGACAA were, in that order, -2.79 ± 0.5 and -2.64 ± 0.44. Take CUAUAGCAAUAUUACGACGC: the “self-splicing fitness (ln)” value reads like this: (30 °C) -3.02 ± 0.36; (37 °C) -2.14 ± 0.38. The like results for CUAUAGCAAUAUUACGAGCA were, in that order, -2.91 ± 0.25 and -2.36 ± 0.33. Taken in the same sequence, the figures for CUAUAGCAAUAUUACGAGUC were -2.61 ± 0.24 and -2.52 ± 0.3. The like results for CUAUAGCAAUAUUACGAUUC were, in that order, -3.51 ± 0.26 and -1.71 ± 0.21. Take CUAUAGCAAUAUUACGCAAU: the “self-splicing fitness (ln)” value runs as follows: (30 °C) -3.66 ± 0.24; (37 °C) -1.58 ± 0.21.

As to CUAUAGCAAUAUUACGCCGG, the “self-splicing fitness (ln)” value (30 °C) was -1.65 ± 0.21 and the “self-splicing fitness (ln)” value (37 °C) is -0.422 ± 0.25. The like results for CUAUAGCAAUAUUACGCGUA were, in that order, -1.43 ± 0.31 and -2.86 ± 0.31.

Take CUAUAGCAAUAUUACGCGUG: the “self-splicing fitness (ln)” value is -1.27 ± 0.1 (30 °C) and -0.122 ± 0.12 (37 °C). On to CUAUAGCAAUAUUACGGAAC, for which the “self-splicing fitness (ln)” value (37 °C) was -1.63 ± 0.49. Take CUAUAGCAAUAUUACGGACU: the “self-splicing fitness (ln)” value (37 °C) is -1.89 ± 0.31. Consider CUAUAGCAAUAUUACGGAUG, for which the “self-splicing fitness (ln)” value (30 °C) is -0.942 ± 0.11 and the “self-splicing fitness (ln)” value (37 °C) was -0.343 ± 0.11. The like results for CUAUAGCAAUAUUACGGCCG were, in that order, 0.0895 ± 0.15 and -0.314 ± 0.15. CUAUAGCAAUAUUACGGGGC: the “self-splicing fitness (ln)” value (37 °C) was -1.7 ± 0.33. Turning to CUAUAGCAAUAUUACGUACA, the “self-splicing fitness (ln)” value by setting is: (30 °C) -2.36 ± 0.17; (37 °C) -2.05 ± 0.2. The like results for CUAUAGCAAUAUUACGUAGC were, in that order, -4.05 ± 0.31 and -3.11 ± 0.43.

Regarding CUAUAGCAAUAUUACGUGAU, the “self-splicing fitness (ln)” value was -1.33 ± 0.066 (30 °C) and -0.295 ± 0.1 (37 °C). The like results for CUAUAGCAAUAUUACGUUAA were, in that order, -4.29 ± 0.47 and -3.36 ± 0.42. Taken in the same sequence, the figures for CUAUAGCAAUAUUACGUUUG were -1.38 ± 0.084 and -1.11 ± 0.11. The like results for CUCAAGCAAUAUUACGAACG were, in that order, -1.54 ± 0.089 and -0.932 ± 0.12.

With CUCAAGCAAUAUUACGACUU, the “self-splicing fitness (ln)” value (30 °C) was -2.2 ± 0.18.

For CUCAAGCAAUAUUACGAGAA, the “self-splicing fitness (ln)” value reads like this: (30 °C) -1.89 ± 0.31; (37 °C) -1.1 ± 0.24. Taken in the same sequence, the figures for CUCAAGCAAUAUUACGAGAG were -3.27 ± 0.22 and -1.81 ± 0.23. With CUCAAGCAAUAUUACGAGCU, the “self-splicing fitness (ln)” value is -4.33 ± 0.3 (30 °C) and -4.08 ± 0.39 (37 °C). The like results for CUCAAGCAAUAUUACGCACA were, in that order, -2.17 ± 0.34 and -2.48 ± 0.28. As to CUCAAGCAAUAUUACGCAUU, the “self-splicing fitness (ln)” value reads like this: (30 °C) -3.4 ± 0.15; (37 °C) -2.7 ± 0.19.

On to CUCAAGCAAUAUUACGCCCG, for which the “self-splicing fitness (ln)” value (30 °C) is -0.954 ± 0.17 and the “self-splicing fitness (ln)” value (37 °C) is -2.11 ± 0.21. In the case of CUCAAGCAAUAUUACGCCUU, where the note is “37 °C”, the “self-splicing fitness (ln)” value was -3.47 ± 0.39.

As for CUCAAGCAAUAUUACGCGCA, the “self-splicing fitness (ln)” value was -2.95 ± 0.16 (30 °C) and -2.21 ± 0.15 (37 °C). Regarding CUCAAGCAAUAUUACGCUAU, the “self-splicing fitness (ln)” value runs as follows: (30 °C) -3.05 ± 0.18; (37 °C) -2.17 ± 0.16. In the case of CUCAAGCAAUAUUACGGACA, the “self-splicing fitness (ln)” value is -2.5 ± 0.35 (30 °C) and -2.1 ± 0.32 (37 °C).

With CUCAAGCAAUAUUACGGAGA, the “self-splicing fitness (ln)” value was -2.83 ± 0.19 (30 °C) and -1.98 ± 0.15 (37 °C).
